Assay results reported in the nanobody polyreactivity screen of Harvey et al. (2022).

Assay: yeast display, Sf9 membrane polyspecificity reagent, FACS + sequencing; frameworks hold sequencing errors
Outline: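 Polyreactivity labels are assigned by the sorting gate from which each nanobody was recovered. The gates were low and high (top ~1%), set on anti-HA fluorescence for expression and streptavidin fluorescence for reagent binding. Before sorting, galactose-induced (36–48 hours) yeast display cells were stained for 1 hour at 4 °C with 10% biotinylated, detergent-solubilized Sf9 membrane reagent.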

Sequence	polyreactivity (PSR sort gate)
QVQLVESGGGLVQAGGSLRLSCAASGSTYEYNAMGWSRQAPGKERELVASSTNYADSVKGRFTISRDNAKNTVYLQMNSLKPEDTAVYYCAREQCVNRNHDYWGQGTQVTVSS	low polyreactivity
QVQLVESGGGLVQAGGSLRLSCAASGSIFYQNAMGWYIQAPGKERELVAAITSDGSTYYADSVKGRFTISRDNAKNTVYLQMNSLKPEDTAVYYCAAEYYGHRYDYWGQGTQVTVSS	low polyreactivity
QVQLVESGGGLVQAGGSLRLSCAASGSIFGGYAMGWYRQAPGKERELVAAISSGGSTYYADSVKGRFTISRDNAKNTVYLQMNSLKPEDTAVYYCNADRGNWWDYGRAYGYDYWGQGTQVTVSS	low polyreactivity
QVHLVDSGGGIVQAGGSLRLSCAATGRISGVYAMVWYRQAPGKERELVAAISWSGGRTYYADSVKGRFTISRDNAKNTVYLQMNSLKPEDTAVYYCNADTGFRSYRRDYWGQGTQVTVSS	low polyreactivity
QVQLVESGGGLVQAGGSLRLSCAASGRTFHDNAMGWYRQAPGKETELVAAISWRGGSTNYADSVKGRFTISRDNAKNTVYLQMNSLKPEDTAVYYCNRDPRKYGKLDYWGQVTQVTVSS	low polyreactivity
QVQLVESGGGLVQAGGSLRLSCASSGYTFIRYAIGLYRQAPGKERELVAAIRGTGTSTYYADSVKGRFTISRDNAKYTVYLQMNSLKTEDTAVYYCNKVAGRSPYTRYDYWGQGTHVTVSS	low polyreactivity
QVQLVESGGGLVQAGGSLRLSCAASGRTFRLYAMGWYRQAPGKERELVAAITRGGRTNYADSVKGRFTISRDNAKNTVYLQMNSLKPEDPAVYYCAARYVERHTDYYYWGQGTQVTVSS	low polyreactivity
QVQLVESGGGLVQAGGSLRLSCAASGRIFYYYAMGWYRQAPGKERELVAAISQRGGRTYYADSVKGRFTISRDIAKNTVYLQMNSLIPEDTAVYYCNAYPVYGRYTHYGYGHWGQGTKVTVSS	high polyreactivity
QVQLVESGGGLVQAGGSLRLSCAASGSIFRTNAMGWYRQAPGKEREYVATISSDSGNTYYADSVKGRFTISRDNAKNTVYLQMNSLKPEDTAVYYCARRKVRYWSYRAANYYWGQGTQVTVSS	low polyreactivity
QVQLVESGGGLVQAGGSLRLSCAASGSTFYAYAMGWYRQAPGKERELVAAIDSGGSTYYADSVKGRFTISRDNAKNTVYLQMNSLKPDDTAVYYCAVRHRYTRAYWGRDYWGQGTQVTVSS	low polyreactivity
QGQLVESGGGLVQAGGSLRLSCAASGFIFRNYAMGWYRQAPGKERELVAAISRGGSTYYADSVKGRFTISRDNAKNTVYLQMNSLKPEDTAVYYCAADASTYYGTQWASYYYWGQGTQVTVSS	high polyreactivity
QVLLVESGGGLVQEGGSLRLSCSASGFTFDSNAMGWYRQAPGKERELVAAISTGGSTYYADSVKGRFTISRDNAKNTVYLQMNSLKPEDNAVYYCAREPPYPDTWYGYWGQGSQVTVSS	low polyreactivity
QVQLVESGGGLVQAGGSLRLSCAASRSTFPWYAMGWYRQAPGKERELVARINSGGSTTYADSVKGRFTISRDNAKNTVYLQMNSLKPEDTAVYYCAADRWYSTYLASYYGYDYWGQGTQVTVSS	low polyreactivity
QVQLVESGGGLVQAGGSLRLSCAASGSIFPGNAMGWYRQAPGKERELVAAISSSGGRTYYADSVKGRFTISRDNAKNTVYLQMNSLKPEDTAVYYCNRLQVYSYYPYYPWYNYWGQGTQVTVSS	high polyreactivity
QVQLVESGGGLVQAGGSLRLSCAASGSIFPYYAMGWYRQAPGKERELVATITYRGGSTNYADSVKGRFTISRDNAKNTVYLQMNSLKPEDTAVYYCAAYGYVLASPDPYSFVKLGYWGQGTQVTVSS	low polyreactivity
QVHLVESGGGLVQAGCSLRLRSAASGRIFSRNAMGRYRQAPGKERELVAAISTGGTTNYADSVKGRFTISRDNANNTVYLQMNSLKPEDTALYYCNAGLLRRRMDYWGQGTQVTVSS	high polyreactivity
QVQLVESGGGLVQAGGSLRLSCAASGSIFNRYAMGWYRKAPGKERELVAAMSSTGSTYYADSVKGRFTISRDNAKNTVYLQMNSLKPEDTAVYYCNADATPDWLRVDTYEYWGQGTQVTVSS	low polyreactivity
QVQLVESGGGLVQAGGSLRLSCAASGFTFYKKTMGWYRQAPGKERELVAAISSSGSSTYYADAVKGRVTISRDNAKNTVYLQMNSLKPEDSAVEYCAAGRFAYHDDYWGQGTQVTVSS	high polyreactivity
QVQLVESGGGLVQAGGSLRLSCAASGSIFDKNAMGWYRQAPGKERELVAAITSSGGDTYYADSVKGRFTISRDNAKNTVYLQMYSLKPEDTAVYYCAALGGRYRASTYGYWGQGTQVTVSS	high polyreactivity
QVQLVESGGGLVQAGGSLRISCAASGRIFFTYVKGWYRQAPGKERELVATIRVSGGSTYYADSVKGRYTISRDNAKKTVYLQMNSLKPEDTAVYYCAASGAWWSLHYAGDFWGQGTQVTVSS	high polyreactivity
QVQLVESGGGLVQAGGSLRLSCAASGRNFYSNAMGWYRQAPGKERELVAAIRWRDGSTYYADSVKGRFTISRDNAKNTVYLQMNSLKPEDTAVYYCAAVYWGEEYEYWGQGTQVTVSS	low polyreactivity
QVQLVESGGGLVQAGGSRRLSCAASGSTFRGNAMGWYRQAPGKERELVAASTWSGDDTYYADSVKGRFTISRDNAKNTVYLQMNSLKPEDTPVSYCAADLAAFTLAVADTYDYWGQGTQVTVSS	low polyreactivity

Sequence	polyreactivity (PSR sort gate)
QVQLVESGGGLVQAGGSLRLSCAASGLNCKTYTMGWDRQAPGKEREFVAAITTSGGSTYYADSVKGRFTISRDNAKNTVYLQMNSLKPEDTAVYYCDAVWCKSFQGSSYGMNYWGQGTLVTVSS	high polyreactivity
QVQLVESGGGLVQAGGSLRLSCAASGIIFDYYAMGWYRQAPGKERELVAAINRNGGTTYYADSVKGRFTISRDNAKNSVYLQMNSLKPEDTAVYYCAAVDFGWITYYYWGQGTQVTVAS	high polyreactivity
QVQLVESGGGLVQAGGSLRLSCAASGSTLQDNAMGWYRQAPGKERELVAAITTGSTTYADSVKGRFTISRDNAKNTVYLQMNSLKPEDTAVYYCNARVDWGWPGYEYDYWGQGTQVTVSS	low polyreactivity
QVQLVESGGGLVQAGGSLRLSCAAAARTFPYNAMGWYRQAPGQERELVATISRRTGTTYYADSVKGRFTISRDNAKNTVYLQMNSLKPEDTAVYFCAATGFGLRRLFRGDYWGQGTQVTVSS	high polyreactivity
QVQLVESGGGLVQAGGSLRLSCAASGSLFGSYAMGWYRQAPGKEREIVASISNSGGSTYYADSVKGRFTISRDNAKNTVYLQMNSLKPEDTAVYYCAAAVYSYTYRYYYWGQGTQVTVSS	high polyreactivity
QVQLVESGGGLVQAGGSLRLSCAASGLTFKSYAMGWYRQAPGKERELVAAISWRGGRTYYADSVKGRFTISRDNAKNTVYLQMNSLKPEDTAVYYSNARSQQWWLSRYNYWGQGTQVTVSS	high polyreactivity
QVQLVESGGGLDQAGGSLRLSCAASGFIFPIYAMGWNRQAPGKERELVAAISWSGGSTYYADSVKGRFTISRDNAKNTVYLQMNSLKPEDTAVYYCAKRYPYYPYDYWGQGTQVTVSS	high polyreactivity
QVQLVESGGGLVQAGGSLRLSCAAYGRIFGYYAMGWYRQAPGKEREFVATISRSGGRTYYADSVKGRFTISRDNAKNTVYLQMNSLKPEDTAVYYCAKGVQFGSKTTFWYDYWGQGTQVTVSS	high polyreactivity
QVQLQESGGGLEQAGGCLRLSCAASGSIFTYAVMGWYRQAHGKEHELVATIDTGSSTYYADSVKGRISISRDNAKNTLYLQMNSLKPEDTEVYYCAVNTYCRVRYRYWVQGTQVTVSS	high polyreactivity
QVQLVESGGGLVQAGGSLRLSCAASGFIFGVNTMGWYRQAPGKERELVAAINSGGSTNYADSVKGRFTISRDNAKNTVYLLMNSLKPEDTAVYYCAVRHFWYRWGWYNYWGQGTEVTVSS	high polyreactivity
QVQLVESGGGLVQAGGRLRLSSAASGFTFNKYGMGWYRQAPRKERELVAAISGSGGSTRYADSVKGRFTISRDNAKNTVYLLMNSLKPEDTAVYFCAKRSQTRYYYWGQGTQVTVSS	high polyreactivity
QVQLVESGGGLVQAGCILRLSCAASGRTFHLNAMGWYIQAPGKEREMVAAITNSGGRTSYADSVKVRFTISRDNAKNTVYIQMNSLKPEDTAVYYFNVEVTYSSGKYYYWGQGTQVTVSS	low polyreactivity
QGQLVESRGGLVQAGGSLRLSCAASGRTFYYYGMGWYIQAPGKERELVATINSGASTYYADSVKGRFTISRDNAKNTVYLQINSLKPEDTAVYYCDAAKENGKYDYWGQGTQVTVSS	high polyreactivity
QVQLVESGGGLVQSVGSLRLSCAASGRSFWINTMGWYRQAPGKERELLAAITSGGSTKYADSVKGRFTISRDNAKNTVYFQMNSLKPEDCAVYYCARRFRPNDVWPSHRGYGYWGQGTQVSVSS	low polyreactivity
QVQLVESGGGLVQAGGSLRLSCAASGRIFSGNGMGWYRQAPGKEREFVAAIRFSSGSTYYADSVKGRFTISRDNAKNTVYLQMNSLKPEDTAVYYCARPSIPRRYDYWGQGTQVTVSS	high polyreactivity
QVQLVESGGGLVQAGGTLRLSCAASGRIFRVYAMGWYRQAPGKERELVATITRGGSTYADSVKGRFTISRDNAKNTVYLQMNSLKPEDTAVYYCAADLVLGYRYDYWGQVTQVTVSS	high polyreactivity
QVQLVESGGGLVQAGGSLRLSCAASGRIFSYNAMGWYRQAPGKERELVAAISYGGGRTYYADSVKGRFTISRDNAKNTVYLQMNSLKPEDTAVYYCAASQYRSPYPYRDYYTPDYDYWGQGTQVTVSS	high polyreactivity
QVQLVESGGGLVQAGGSLRLSCAASGSTFAYNDMGWYRQAPWKERDLVADIRSGGNTNYADSVKGRFTISRDNAKNTVYLQMNILKPEDTAVYYCASDGYRIDVYHPDYRYDYWGQGTQVTVSS	low polyreactivity
QVQLVESGGGIVQAGGSLRLSCAASGSIFDNAMGWYRQAPGKERELVAAITSGGITNYADSVKGRFTISRDNAKNTVYLQMNSLKPEDTAVYYCNTLSPTQTKYDYWGQGTKVTVSS	low polyreactivity
QVQLVESGGGVVQAGGSLRLSCAASGSTFGRYAMGWYRQAPGKERELVAAISWSGGSTYYADSVKGRFTISRDNAKNTVYLQMNSLKPEDTAVYYCNKYWRGSSSRDDYWGQGTQVTLSS	high polyreactivity
QVQLVESGGGLVQAGGSLRISCAASGFIFRQYAMGWYRQAPGKERELVAAISRSGGSTYYADSVKGRFTISRDNAKNTVYLQMNSLKPEDTAVYYCNAVPRKYTDEFDYWGQGTQVTVSS	high polyreactivity
